These results are taken from article PMC4931317, “UtpA and UtpB chaperone nascent pre-ribosomal RNA and U3 snoRNA to initiate eukaryotic ribosome assembly” (Nature Communications, 2016).

Experiment [1] deals with T1, Utp10-3C-GFP (S. cerevisiae, UniProt P42945 1-1769).
T1 construct: Utp10, S. cerevisiae, subunit of UtpA (200 kDa); GFP is joined through a 3C protease site; it holds the protein on the beads in a1-a3 and is cleaved off by 3C on elution, so it is absent in the SEC step and in the DSS cross-linking (a6); also called Utp10-GFP; Utp10-sbp-H14-3C-GFP; source: S. cerevisiae YSK32, C-terminal tag integrated in the genome, endogenous level; captured from lysate on …
T1 sequence (P42945 whole entry): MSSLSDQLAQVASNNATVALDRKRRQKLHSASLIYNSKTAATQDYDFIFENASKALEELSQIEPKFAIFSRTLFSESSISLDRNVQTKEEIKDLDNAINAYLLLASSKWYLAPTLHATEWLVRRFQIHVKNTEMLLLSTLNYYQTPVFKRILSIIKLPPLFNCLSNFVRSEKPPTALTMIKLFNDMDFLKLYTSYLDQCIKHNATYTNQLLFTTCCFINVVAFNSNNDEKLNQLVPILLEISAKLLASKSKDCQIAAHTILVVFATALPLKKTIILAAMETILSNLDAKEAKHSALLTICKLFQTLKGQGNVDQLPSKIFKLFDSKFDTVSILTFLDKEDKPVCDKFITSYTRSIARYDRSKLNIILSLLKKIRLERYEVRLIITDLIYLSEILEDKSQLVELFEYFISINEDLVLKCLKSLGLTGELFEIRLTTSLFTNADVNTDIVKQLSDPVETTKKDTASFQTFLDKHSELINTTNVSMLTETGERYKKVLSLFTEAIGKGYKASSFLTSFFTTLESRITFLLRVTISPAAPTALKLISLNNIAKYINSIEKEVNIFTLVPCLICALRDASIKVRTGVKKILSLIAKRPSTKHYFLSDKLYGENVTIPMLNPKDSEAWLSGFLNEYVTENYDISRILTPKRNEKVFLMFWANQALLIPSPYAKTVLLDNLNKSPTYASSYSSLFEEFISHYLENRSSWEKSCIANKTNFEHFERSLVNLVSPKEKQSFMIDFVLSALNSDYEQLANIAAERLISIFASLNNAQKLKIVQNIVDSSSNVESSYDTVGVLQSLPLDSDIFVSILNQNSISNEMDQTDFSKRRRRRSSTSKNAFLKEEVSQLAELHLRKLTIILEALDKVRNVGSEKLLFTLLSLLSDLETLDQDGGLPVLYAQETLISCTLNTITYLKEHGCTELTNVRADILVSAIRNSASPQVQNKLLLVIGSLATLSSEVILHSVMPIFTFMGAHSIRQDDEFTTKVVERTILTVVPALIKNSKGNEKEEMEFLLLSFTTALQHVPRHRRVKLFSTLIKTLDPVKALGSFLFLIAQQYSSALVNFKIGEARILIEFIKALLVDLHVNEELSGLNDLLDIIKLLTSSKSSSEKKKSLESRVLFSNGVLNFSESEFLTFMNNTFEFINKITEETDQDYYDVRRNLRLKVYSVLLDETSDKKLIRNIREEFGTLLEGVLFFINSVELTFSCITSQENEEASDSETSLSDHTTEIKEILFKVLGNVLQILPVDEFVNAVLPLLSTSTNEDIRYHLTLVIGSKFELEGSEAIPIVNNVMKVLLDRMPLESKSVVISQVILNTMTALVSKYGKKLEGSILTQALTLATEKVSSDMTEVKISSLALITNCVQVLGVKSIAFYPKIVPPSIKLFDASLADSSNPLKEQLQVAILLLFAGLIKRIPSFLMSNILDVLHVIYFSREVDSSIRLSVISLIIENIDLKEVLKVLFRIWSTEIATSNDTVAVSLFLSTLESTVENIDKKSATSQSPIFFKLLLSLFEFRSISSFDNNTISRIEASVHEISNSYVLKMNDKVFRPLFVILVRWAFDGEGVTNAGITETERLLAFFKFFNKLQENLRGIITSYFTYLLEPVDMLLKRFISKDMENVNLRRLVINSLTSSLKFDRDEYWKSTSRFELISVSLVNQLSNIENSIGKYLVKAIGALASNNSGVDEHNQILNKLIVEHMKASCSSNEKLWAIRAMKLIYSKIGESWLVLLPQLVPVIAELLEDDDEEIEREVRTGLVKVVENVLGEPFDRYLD
Nature of the experiment: cross-linking; DSS (0.2 mM, H12/D12) cross-linking of SEC-purified endogenous UtpA, 25 °C, 30 min, 50 mM HEPES-NaOH pH 7.6, 200 mM NaCl, 1 mM EDTA; cross-linked peptides found by mass spectrometry (pLink). As to conditions: both partners purified.

The next experiment concerns the target T2, Utp4 (S. cerevisiae, UniProt Q06679 1-776).
T2 construct: Utp4, S. cerevisiae, subunit of UtpA; No tag is named for it in either strain; strains are in Supplementary Data 1; source: endogenous, S. cerevisiae YSK32, co-purified with Utp10-GFP; overexpressed (galactose promoter) in S. cerevisiae YSK122, co-purified with Utp15-mCherry
T2 sequence (looked up): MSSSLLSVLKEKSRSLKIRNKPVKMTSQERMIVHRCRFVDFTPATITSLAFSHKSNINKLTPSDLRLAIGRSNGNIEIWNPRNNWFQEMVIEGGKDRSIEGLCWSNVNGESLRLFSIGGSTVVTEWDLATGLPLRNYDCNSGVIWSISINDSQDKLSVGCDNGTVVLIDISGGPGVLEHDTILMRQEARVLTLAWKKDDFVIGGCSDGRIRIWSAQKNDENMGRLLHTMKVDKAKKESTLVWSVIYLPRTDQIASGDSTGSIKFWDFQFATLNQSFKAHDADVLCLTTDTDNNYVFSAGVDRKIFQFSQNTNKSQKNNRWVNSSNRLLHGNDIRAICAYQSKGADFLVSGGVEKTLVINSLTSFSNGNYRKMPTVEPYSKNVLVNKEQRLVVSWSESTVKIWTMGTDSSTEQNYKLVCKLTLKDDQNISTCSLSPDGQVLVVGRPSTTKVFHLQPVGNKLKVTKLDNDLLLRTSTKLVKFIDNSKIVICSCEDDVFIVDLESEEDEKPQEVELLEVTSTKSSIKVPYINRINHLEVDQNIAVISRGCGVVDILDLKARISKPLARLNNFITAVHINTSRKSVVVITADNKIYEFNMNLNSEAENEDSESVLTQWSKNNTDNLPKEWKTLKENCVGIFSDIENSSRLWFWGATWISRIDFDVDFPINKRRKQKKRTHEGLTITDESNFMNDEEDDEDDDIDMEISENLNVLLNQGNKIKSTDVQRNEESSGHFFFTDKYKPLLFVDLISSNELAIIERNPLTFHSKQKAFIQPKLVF
The experiment is described as above. The conditions noted are these: both partners purified.

The target in experiment [2] is T1, Utp10-3C-GFP. Nature of the experiment: pull-down + SEC; endogenous UtpA from YSK32 lysate captured via Utp10-GFP on anti-GFP nanobody sepharose; 50 mM HEPES-NaOH pH 7.6, 200 mM NaCl, 1 mM EDTA, 4 °C; eluted with TEV and 3C protease; Superose 6; peak fraction on Coomassie-stained SDS-PAGE. As to conditions: partners not purified.

B1: Utp8 (natural protein, S. cerevisiae, UniProt P53276 1-713, looked up)
chain: MPSLSQPFRLATLPKIASLSNFSLQADYVQVADGTFNESTNNITLGISGSSISQYIINPTPKLTFDYPIPSTNIITACNAEKGQANIDGNIEASTDDEANNEKTINTQKKRNVEIWAFGLMVNKGNYTLNVITKALEDTTDTSNDHLSESDIDNKAYTGSDEFLSQYKIKAKAKVMSIKIDTKNSLVIAILQNGLIEIFDFKLTLLHSFDISYDNLKYAKWFTENGTEYVFVLCPLQDDKVCYKLLELTDCGSGESSPIKELSSTIIEGFSFENSKLCYQFGKLYKLNQGKIYIYSLPHCQLQQVIEFPMVDKLSPGDDLISFQPVSVNRVLLTVNNVIYLLDLLHCSTLSQRELTHVKTFQLLKSAVINSEKSHNSKTIAIGISTKNGPNPTSSLEIINIDVGTNTLKDSLGKSFQVGNNDSSVILKPLFDDKDINDKRVKCNDVSGDSSVPVLHCNEVIEKLSALQDNDITSFDDIFFKELKIKEEHYTEKDRYISDPGFLNKVLDLIFGKFSGNDYPKTLTFLLTHPLFPLSRTRNLLSLLRDQPRLFKQAIVTCPNLPLNELLEELFSIRNRELLLDISFRILQDFTRDSIKQEMKKLSKLDVQNFIEFITSGGEDSSPECFNPSQSTQLFQLLSLVLDSIGLFSLEGALLENLTLYIDKQVEIAERNTELWNLIDTKGFQHGFASSTFDNGTSQKRALPTYTMEYLDI
notes: Utp8, S. cerevisiae, subunit of UtpA; No tag is named for it in either strain; strains are in Supplementary Data 1; source: endogenous, S. cerevisiae YSK32, co-purified with Utp10-GFP; overexpressed (galactose promoter) in S. cerevisiae YSK122, co-purified with Utp15-mCherry
Take B1: the binding result in the experiment with Utp10-3C-GFP [1] and with Utp4 was “binds” throughout.

B2: Utp5 (natural protein, S. cerevisiae, UniProt Q04177 1-643, looked up)
chain: MDSPVLQSAYDPSGQYLCYVTVALDKQRVGVQPTQRATSSGVDTVWNENFLYLEDSKLKVTCLKWVNLASSDTVAIILGMNNGEIWLYSVLANEVTYKFTTGNSYEIKDIDLMGNQLWCIDSSDAFYQFDLLQFKLLQHFRINNCVQLNKLTIVPAGDSVAQLLVASHSISLIDIEEKKVVMTFPGHVSPVSTLQVITNEFFISGAEGDRFLNVYDIHSGMTKCVLVAESDIKELSHSGQADSIAVTTEDGSLEIFVDPLVSSSTKKRGNKSKKSSKKIQIVSKDGRKVPIYNAFINKDLLNVSWLQNATMPYFKNLQWREIPNEYTVEISLNWNNKNKSADRDLHGKDLASATNYVEGNARVTSGDNFKHVDDAIKSWERELTSLEQEQAKPPQANELLTETFGDKLESSTVARISGKKTNLKGSNLKTATTTGTVTVILSQALQSNDHSLLETVLNNRDERVIRDTIFRLKPALAVILLERLAERIARQTHRQGPLNVWVKWCLIIHGGYLVSIPNLMSTLSSLHSTLKRRSDLLPRLLALDARLDCTINKFKTLNYEAGDIHSSEPVVEEDEDDVEYNEELDDAGLIEDGEESYGSEEEEEGDSDNEEEQKHTSSKQDGRLETEQSDGEEEAGYSDVEME
notes: Utp5, S. cerevisiae, subunit of UtpA; No tag is named for it in either strain; strains are in Supplementary Data 1; source: endogenous, S. cerevisiae YSK32, co-purified with Utp10-GFP; overexpressed (galactose promoter) in S. cerevisiae YSK122, co-purified with Utp15-mCherry
For B2, the binding result in the experiment with Utp10-3C-GFP [2] is reported as “binds”.
